For orientation: Ki means the equilibrium dissociation constant of an inhibitor or competing ligand from its target.

The target of assay [1] is T1, human α-thrombin (recombinant) (human, UniProt P00734 328-363; P00734 364-622). Description: thrombin amidolytic assay with S2238; column headed Affinity (nM).
Method: Each data point is the mean±S.D. of at least three experiments. […] Data were fitted to the Morrison tight binding equation using GraphPad Prizm software. Each data point is the mean±S.D. of at least three experiments.
Thrombin amidolytic activity assays for all peptides were performed in 96-wells microtiter plates in 50 mM Tris buffer (pH 7.4) containing 100 mM NaCl and 1 mg/ml bovine serum albumin. […] Dose-response curves were fitted using the GraphPad Prizm software (San Diego, Calif., USA) to calculate IC50 values and Hill coefficients. To measure the inhibitory constants, different concentrations of S2238 were used and the residual velocities were determined using the Morrison's tight binding equation.
The target in assay [2] is T1, human α-thrombin (recombinant). Description: cell-based or functional assay.
The target is the same in assay [3]. Description: thrombin amidolytic assay with S2238, Morrison tight-binding fit, competitive.
Method: Data were fitted to the Morrison tight binding equation using GraphPad Prizm software. Each data point is the mean±S.D. of at least three experiments.
Each data point is the mean±S.D. of at least three independent experiments. […] Each data point is the mean±S.D. of at least three independent experiments. […] Each data point is the mean±S.D. of at least three experiments.
Thrombin amidolytic activity assays for all peptides were performed in 96-wells microtiter plates in 50 mM Tris buffer (pH 7.4) containing 100 mM NaCl and 1 mg/ml bovine serum albumin.
For assay [4] the target is unchanged. Description: cell-based or functional assay. The source holds these as a separate data set.
The target in assay [5] is fIXa. Description: cell-based or functional assay.
Assay [6] concerns the target bovine trypsin (bovine, UniProt P00760 24-246). Description: cell-based or functional assay.
Assay [7] has as its target T1, human α-thrombin (recombinant). Description: cell-based or functional assay. This is another data set of the same source.
The target in assay [8] is tPA. Description: cell-based or functional assay.
Assay [9] deals with plasmin. Description: cell-based or functional assay.
The target of assay [10] is bovine chymotrypsin (bovine, UniProt P00766 1-245). Description: cell-based or functional assay.
The target in assay [11] is urokinase. Description: cell-based or functional assay.
In assay [12] the target is fVIIa. Description: cell-based or functional assay.
Assay [13] concerns the target fXa. Description: cell-based or functional assay.
Assay [14] addresses APC. Description: cell-based or functional assay.
For assay [15], the target named is fXIa. Description: cell-based or functional assay.
Assay [16] has as its target kallikrein. Description: cell-based or functional assay.
Assay [17] has as its target fXIIa. Description: cell-based or functional assay.

Chain of fXa (P00742 whole entry): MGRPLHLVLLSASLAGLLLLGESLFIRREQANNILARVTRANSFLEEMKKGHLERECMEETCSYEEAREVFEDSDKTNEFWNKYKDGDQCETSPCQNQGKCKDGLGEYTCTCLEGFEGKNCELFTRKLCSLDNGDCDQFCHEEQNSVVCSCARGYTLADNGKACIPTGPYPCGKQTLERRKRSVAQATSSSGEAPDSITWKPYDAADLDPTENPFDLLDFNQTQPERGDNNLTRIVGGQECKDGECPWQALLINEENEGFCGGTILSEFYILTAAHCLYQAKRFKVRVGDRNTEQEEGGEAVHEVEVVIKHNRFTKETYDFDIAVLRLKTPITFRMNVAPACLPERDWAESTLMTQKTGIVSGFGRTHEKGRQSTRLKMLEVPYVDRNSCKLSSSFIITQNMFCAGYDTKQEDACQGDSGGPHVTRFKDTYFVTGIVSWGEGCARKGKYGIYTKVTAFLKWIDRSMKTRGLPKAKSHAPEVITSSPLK
Chain of bovine trypsin (P00760 24-246): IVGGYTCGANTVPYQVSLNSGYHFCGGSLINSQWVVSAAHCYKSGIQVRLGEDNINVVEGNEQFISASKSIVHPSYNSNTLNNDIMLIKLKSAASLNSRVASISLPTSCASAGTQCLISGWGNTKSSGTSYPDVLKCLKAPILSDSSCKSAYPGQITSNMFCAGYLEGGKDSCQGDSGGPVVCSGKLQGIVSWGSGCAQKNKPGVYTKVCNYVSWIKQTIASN
Chain of fVIIa (P08709 whole entry): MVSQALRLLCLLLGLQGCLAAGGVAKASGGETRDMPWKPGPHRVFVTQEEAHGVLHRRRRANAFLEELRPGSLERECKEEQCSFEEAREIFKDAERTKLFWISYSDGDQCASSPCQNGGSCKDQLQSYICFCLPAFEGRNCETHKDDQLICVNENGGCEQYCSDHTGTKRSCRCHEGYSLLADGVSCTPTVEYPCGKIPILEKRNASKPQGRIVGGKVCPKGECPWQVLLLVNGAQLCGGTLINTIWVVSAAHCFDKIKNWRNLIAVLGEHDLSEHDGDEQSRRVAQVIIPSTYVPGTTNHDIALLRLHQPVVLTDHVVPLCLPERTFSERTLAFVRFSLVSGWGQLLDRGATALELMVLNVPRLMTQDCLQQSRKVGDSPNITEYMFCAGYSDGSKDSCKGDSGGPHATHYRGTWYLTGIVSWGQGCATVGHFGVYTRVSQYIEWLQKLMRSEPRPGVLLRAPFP

B1: avathrin (Amblyomma variegatum thrombin inhibitor) (peptide)
peptide: SGGHQTAVPKISKQGLGGDFEEIPSDEIIE
notes: Synthetic 30-residue peptide; one repeat of precursor protein BAD29729
Turning to B1, the Ki in assay [1] and in assay [3] was 0.545 nM throughout. For the same molecule, the “IC50, inhibition of thrombin amidolytic activity” value in [2] was determined as 6.95 nM. Moreover, the “IC50, inhibition of thrombin amidolytic activity (S2238)” value in assay [4] was 6.95 nM. Also, the “percent inhibition of amidolytic activity at 100 µM avathrin” value in assay [5], in assay [6], in assay [8], in assay [9], in assay [10] and in assay [11] was less than 30% each time. Further, the “percent inhibition of amidolytic activity at 100 µM avathrin” value in assay [12], in [13], in assay [14], in assay [15], in assay [16] and in [17] was less than 30% throughout. The “IC50, inhibition of the amidolytic activity of clot-bound thrombin (S2238)” value in assay [7] stood at 1740 nM. Also, the “IC50, inhibition of thrombin amidolytic activity, 10 min pre-incubation” value in [7] worked out at 4.86 nM. In assay [7], the “percent of thrombin amidolytic activity inhibited at 24 h of incubation (avathrin in about 30-fold excess)” value was greater than 45%.

The values above are taken from patent US20190002511A1 (NATIONAL UNIVERSITY OF SINGAPORE, published 2019).
